Residue numbers refer to the chain shown, from its start. Names and notes keep the numbering of the source. Values belong to the binder of their own block, whether it stands above or below them.
Tests used:
[1] = molecular target: T1, 人CLDN18.2 (claudin-18 isoform 2 [Homo sapiens], NP_001002026.1) (human); assay: cell ELISA on fixed NUGC4 cells (endogenous human CLDN18.2)
T1 construct: Full-length gene cloned into pEGFP-N2 and stably expressed on HEK293 cells (HEK293-hCLDN18.2); also called hCLDN18.2; HEK293-hCLDN18.2

[2] = molecular target: T1, 人CLDN18.2 (claudin-18 isoform 2 [Homo …); assay: cell ELISA on fixed HEK293-hCLDN18.2 cells
[3] = molecular target: T1, 人CLDN18.2 (claudin-18 isoform 2 [Homo …); assay: cell-based or functional assay
[4] = molecular target: T1, 人CLDN18.2 (claudin-18 isoform 2 [Homo …); assay: cell-based or functional assay; remark: listed apart in the source
[5] = molecular target: T2, 人CLDN18.1 (claudin-18 isoform 1 precursor [Homo sapiens], NP_057453.1) (human, UniProt P56856 1-261); assay: flow cytometry on HEK293-hCLDN18.1 cells
T2 construct: Full-length gene in pEGFP-N2, stably expressed on HEK293 cells (HEK293-hCLDN18.1); also called hCLDN18.1; HEK293-hCLDN18.1
T2 sequence: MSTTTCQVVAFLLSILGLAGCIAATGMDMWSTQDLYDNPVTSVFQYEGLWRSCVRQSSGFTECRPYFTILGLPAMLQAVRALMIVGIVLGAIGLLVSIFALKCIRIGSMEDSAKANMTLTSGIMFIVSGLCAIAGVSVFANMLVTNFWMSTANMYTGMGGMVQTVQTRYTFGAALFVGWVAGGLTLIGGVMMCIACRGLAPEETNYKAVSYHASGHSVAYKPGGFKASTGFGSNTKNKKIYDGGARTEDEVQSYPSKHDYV

[6] = molecular target: T1, 人CLDN18.2 (claudin-18 isoform 2 [Homo …); assay: flow cytometry on HEK293-hCLDN18.2 cells, MFI against concentration

EC50 [1]: 0.57 mg/L
EC50 [2]: 0.0173 mg/L
相对结合活性 (relative to Ref.ch175) [2]: 180%
CDC on HEK293-hCLDN18.2 cells (rabbit complement, CCK-8), EC50 [3]: 0.0309 mg/L
ADCC reporter gene assay (Jurkat/NFAT-luc+FcγRIIIa) on HEK293-hCLDN18.2 cells, EC50 [4]: 0.0476 mg/L
binding result [5]: no binding
EC50 [6]: 0.81 mg/L
B1: 嵌合抗体ch782 (antibody, V domains shown)
VH: DVQLQESGPDLVKPSQSLSLTCTVTGYSITSGYSWHWIRQFPGNKLEWMGYIHYSDNTNYSPSLKSRISITRDTSKNQFFLQLNSVTTEDTATYYCARIYYGNSFVYWGQGTLVTVSA
VL: DIVMTQSPSSLTVTAGEKVTMSCKSSQSLLNSGNQKNYLTWYQQKPGQPPKLLIYWASTRESGVPDRFTGSGSGTDFTLTINSVQAEDLAVYYCQNDYFYPYTFGGGTKLEIK

EC50 [2]: 0.0392 mg/L
相对结合活性 (relative to Ref.ch175) [2]: 79.3%
binding result [5]: no binding
B2: 嵌合抗体ch624 (antibody, V domains shown)
VH: QVQLQQPGAELVRPGASVKLSCKASGYSFTSYWMNWVKQRPGQGLEWIGMIHPSDSETRLNQKFKDKATLTVDKSSSTAYMQLSSPTSEDSAVYYCARTSYGNSFAYWGQGTLVTVSA
VL: B1 VL with N82S, F99S, Y102F, G106S

ADCC reporter gene assay on HEK293-hCLDN18.2 cells, EC50 [3]: 0.0709 mg/L
CDC on HEK293-hCLDN18.2 cells (rabbit complement, CCK-8), EC50 [3]: 0.0476 mg/L
B3: 人源化抗体hu782-HV (H1.2-V101A L2组合) (antibody, human IgG1, V domains shown)
VH: QVQLQESGPGLVKPSETLSLTCTVSGYSITSGYSWHWIRQPPGKGLEWMGYIHYSDNTNYAPSLKSRITISRDTSKNQFSLKLSSVTAADTAVYYCARIYYGNSFAYWGQGTLVTVSS
VL: DIVMTQSPDSLAVSLGERATINCKSSQSLLNSGNQKNYLTWYQQKPGQPPLLIYWASTRESGVPDRFSGSGSGTDFTLTISSLQAEDVAVYYCQNDYFYPYTFGGGTKLEIK

Reference: patent CN116102649A (SHANGHAI INST OF BIOLOGICAL PRODUCTS CO LTD, dated 2023)
